# Where two headings read alike, the source gives them in different places.
# Tests used:
# [1] = Ex vivo biodistribution of 111In-labeled variants in AR42J xenograft mice; design: species or system athymic nude mice; details: athymic nude, mouse, iv, 1 ug, total radioactivity, 1 h post-injection; for tissue uptake at 1 h: in vivo, AR42J tumor-bearing mice
# Description: For studies involving three variants (DOTA -TATE, DOTA-MVK(ε)-TATE, and DOTA-β-Gal-TATE), AR42J cells (5 × 10^6 cells per mouse) were subcutaneously inoculated into the right shoulder of the mice. Tumors were allowed to grow for 3 weeks, reaching a volume of 100 –200 mm³ before being used in subsequent experiments. For biodistribution or PET imaging studies, mice bearing subcutaneous AR42J tumors were administered 1.4 – 1.8 MBq (1 μg) of 111In-labeled DOTA-TATE variants or 2.7 – 4.9 MBq (1 μg) of 86Y-labeled DOTA-TATE variants via tail vein injection. Biodistribution studies with 111In-labeled DOTA -TATE variants were performed 1 hour post -injection (n = 3 per cohort), while studies with 86Y-labeled DOTA-TATE variants were conducted at 1, 4, and 24 hours post -injection (n = 3 per cohort). Mice were euthanized by CO2 asphyxiation, and 10 tissues, including tumors, were collected. All samples were weighed and counted on a gamma counter (2480 Wizard 3, Perkin Elmer Inc., Waltham, MA, USA). Results are presented as percentage of injected activity per gram (%IA/g) and mean values ± standard deviations. […]
# [2] = Ex vivo biodistribution screen of 111In-labeled DOTA-TATE derivatives in normal mice; design: species or system athymic nude mice; details: 2 h post-injection; for tissue uptake at 2 h: athymic nude, mouse, in vivo, iv, 1 ug per mouse, total radioactivity, normal athymic nude mice, mean
# Summary of the method: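 DOTA-TATE variants labelled with 111In in NH4OAc pH 5.2 at 90 °C for 30 min (radiochemical yield >95%, unpurified). Healthy athymic nude mice given 1.4 – 1.8 MBq (1 μg) i.v. in PBS; nine organs assessed ex vivo at 2 hours post-injection, n = 2 – 4.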
smiles,measurement,setting,value
"C[C@@H](O)[C@H](NC(=O)[C@@H]1CSSC[C@H](NC(=O)[C@@H](Cc2ccccc2)NC(=O)CCCC(=O)Nc2cc(COC(=O)N(C)CCNC(=O)CN3CCN(CC(=O)O)CCN(CC(=O)O)CCN(CC(=O)O)CC3)ccc2O[C@@H]2O[C@H](CO)[C@H](O)[C@H](O)[C@H]2O)C(=O)N[C@@H](Cc2ccc(O)cc2)C(=O)N[C@H](Cc2c[nH]c3ccccc23)C(=O)N[C@@H](CCCCN)C(=O)N[C@@H]([C@@H](C)O)C(=O)N1)C(=O)O [^111In-DOTA-β-Gal-TATE, metal not drawn]",tissue uptake at 1 h,"[1]; i.v. 1 μg (1.4–1.8 MBq), ex vivo gamma counting, mean, n = 3, read-out: Blood uptake",0.56 %ID/g
same,tissue uptake at 1 h,"[1]; i.v. 1 μg, ex vivo, mean (± SD), n = 3, read-out: Kidney uptake",5.19 ± 0.18 %ID/g
same,tissue uptake at 1 h,"[1]; i.v. 1 μg, ex vivo, mean (± SD), n = 3, read-out: Tumor uptake",10.8 ± 1.11 %ID/g
same,tissue uptake at 1 h,"[1]; i.v. 1 μg, ex vivo, mean, n = 3, read-out: Femur uptake",0.34 %ID/g
same,tissue uptake at 1 h,"[1]; i.v. 1 μg, ex vivo, mean, n = 3, read-out: Heart uptake",0.29 %ID/g
same,tissue uptake at 1 h,"[1]; i.v. 1 μg, ex vivo, mean, n = 3, read-out: Intestine uptake",0.79 %ID/g
same,tissue uptake at 1 h,"[1]; i.v. 1 μg, ex vivo, mean, n = 3, read-out: Liver uptake",0.45 %ID/g
same,tissue uptake at 1 h,"[1]; i.v. 1 μg, ex vivo, mean, n = 3, read-out: Lung uptake",0.92 %ID/g
same,tissue uptake at 1 h,"[1]; i.v. 1 μg, ex vivo, mean, n = 3, read-out: Muscle uptake",0.17 %ID/g
same,tissue uptake at 1 h,"[1]; i.v. 1 μg, ex vivo, mean, n = 3, read-out: Spleen uptake",0.21 %ID/g
same,tissue to tissue ratio at 1 h,"[1]; AR42J xenografts, ex vivo, read-out: Tumor-to-kidney (T/K) ratio",2.08
same,tissue uptake at 2 h,"[2]; i.v. 1 μg (1.4–1.8 MBq), ex vivo gamma counting, n = 2–4, read-out: Blood uptake",0.04 %ID/g
same,tissue uptake at 2 h,"[2]; i.v. 1 μg, ex vivo, n = 2–4, read-out: Femur uptake",0.07 %ID/g
same,tissue uptake at 2 h,"[2]; i.v. 1 μg, ex vivo, n = 2–4, read-out: Heart uptake",0.03 %ID/g
same,tissue uptake at 2 h,"[2]; i.v. 1 μg, ex vivo, n = 2–4, read-out: Intestine uptake",0.49 %ID/g
same,tissue uptake at 2 h,"[2]; i.v. 1 μg, ex vivo, n = 2–4, read-out: Liver uptake",0.11 %ID/g
same,tissue uptake at 2 h,"[2]; i.v. 1 μg, ex vivo, n = 2–4, read-out: Lung uptake",0.28 %ID/g
same,tissue uptake at 2 h,"[2]; i.v. 1 μg, ex vivo, n = 2–4, read-out: Muscle uptake",0.02 %ID/g
same,tissue uptake at 2 h,"[2]; i.v. 1 μg, ex vivo, n = 2–4, read-out: Spleen uptake",0.08 %ID/g
same,"Relative kidney retention, % rel. to DOTA-TATE","[2]; normal mice, 111In-DOTA-TATE set as 100%",67%

# From article doi:10.1101/2025.09.11.675134, “Biodistribution-Driven Discovery Identifies a Glycosidase-Cleavable Linker to Reprogram Radiotheranostics” (bioRxiv, 2025)
